Results published in the RNAGym collection of RNA variant scans (doi:10.1073/pnas.2313332121).

B1: TPR t1 (parent)
chain: GACCAAUCUGCCCUCAGAGCUCGAGAACAUCUUCGGAUGCAGAGGAGGCAGGCUUCGGUGGCGCGAUAGCGCCAACGUCCUCAACCUCCAAUGCAUCCCACCACAUGAUGAUGCCUGAAGAGCCUUGGUUUUUUG

Variants of: B1
Assay: polymerase ribozyme fitness, log enrichment relative to wild type (log ratio); higher = more active; in vitro selection for triplet polymerase activity
Method in brief: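 Fitness compares each genotype's enrichment to that of the wild type on a logarithmic scale, averaging replicates with inverse-variance weights. The logarithm is base 2. Enrichment came from Illumina sequencing of input and output libraries after one triplicate round of in vitro selection, which included frozen incubation at −7 °C, of PCR-built, transcribed mutant libraries of each subunit of a heterodimeric triplet polymerase ribozyme. Only genotypes with ≥10 input reads and ≥1 read per output were kept.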

First: GACCAUUCUGCCCUCAGAGCUCGAGAACAUCUUCGGAUGCAGAGGUGGCAGGCUUCGGUGGCGCGAUAGCGCCAACGUCCUCAACCUCCAAUGCAUCCCACCACAUGAUGAUGCAUGAAGAGCCUUGGUUUUUUG
Second: GACCAAUCUGCCCUCAGAGCUCGAGAACAUAUUCGGAUGCAGAGGAGGCAGGCUUCGGUGGCGCGAUAGCGGCAACGUCCUCAACCUCCAAUGCAUCCCACCACAUGAUGAUGCCUGAAGAGCCUUGGUUUUUUG
The “polymerase ribozyme fitness (log ratio)” value of the first is higher: -2.18 for the first, -5.43 for the second.

Compared with GACCAAUCUGGCCUGAGAGCUCGAGAACAUCUUCGGAUGCAGAGGAGGCAGGCUUCGGUGGCCCGAUUGCGCCAACGUCUUCAACCUCCAAUGCAUCCCACCACAUGAUGAUGCGUGAAGAGCCUUCGUUUUUUC, GACCAAUCUGCCCUCAGAGCUCGAGAACUUCUUCGGAUGCAGAGGAGGCAGGCUUCGGUGGCGCGAUAGCGCCAACCUCCUCAACCUCCAAUGCAUCCCACCACAUGAUGAGGCCUGAAGAGCCUUCGUUUUUUG is lower in “polymerase ribozyme fitness (log ratio)” value: -5.08 for the first, -5.41 for the second.

Compared with GACCAAUCUGCCCUCAGAGCUCGAGAACAUCUUCGGAUGCAGAGGAGGCAGGCUUCGGUGGUGCGAUAGCGCCAACGUCCUCAACCUCCAAUGCAUCCCACCACAUGAUGAUGCGUGAAGAGCCUUGGAUUUUUG, GACCAAUCUGACCUCAUAGCUCGAGAACAUCUUCGGAUGCAGAGGAGGCAGGCUUCGGUGCCGCGAUAGCGCCAACGUCCUCAGCCUCCAAUGCAUCCCACCACAUGAUGAUGCCUGAAGAGCAUUGGUUUUUUG is lower in “polymerase ribozyme fitness (log ratio)” value: -3.05 for the first, -4.74 for the second.

GACCAAUCUGCCAUCAGAGCUCGAGAACAUCUUCGGAUGCAGAGGAGGCAGGUUUCGGUGGCGCGAUAGCGCCAACGUCCUCAACCUCCAAUGCAUCCCACCACAUGAUGAUGCCUGAAGAGCCUUGGUUUUUUG and GACCAUCCUGCCCUCAGAGCUCGAGAACAUCUUCGGAUGCGGAGGAGGCAGGCUUCGGUGGCGCGAUAGCGCCAACGUCCUCAACCUCCAAUGCAUCCCACCACAUGAUAAUGCCUGAAGAGCCUUGGUUUUUUG are within 0.2 log units of each other in “polymerase ribozyme fitness (log ratio)” value: -2 for the first, -1.88 for the second.

Going from GACCAAUCUGCCCUCAGGGCUCGAGAACAUCUUCGGAUGCAGAGGAGGCAGGCUUCGGUGGCGCGAUAGCGCCAACGUCCUCAACCUCCAACGCAUCCCACCAUAUGAUGAUGCCUUAAGAGACUUGGUUUUUUG to GACCAAUCUGCCCUUAGAGCUCGAGAACAUCUUCGGAUGCAGCGGAGGCAGGCUUCGGUGGCGCGAUAACGCCAACGUCCUCAACCUCCAAUGCAUCCCACCACAUGAUGAUGCCUGAAGAGUAUUGGUUUUUUG, the “polymerase ribozyme fitness (log ratio)” value falls from -2.56 to -5.69.

Going from GACCAAUCUGCCCUCAGAGCUCGAGAACAUCUUCGUAUGCAGAGGAGGCAGGCUUCGGUGGCGCGAUAGCGCCAACGUCCUCAACCUCCAAUGCAUCCCACCACAUGAUGAUGCCUGAAGAGCCUUAGUUUUUUG to GACCAAUCUGCCCUCAGAGCUCGAGAACAUCUUCGGAUGCAGAGGAGGCAGGCUUCGGUGGCGCGAUAGCGCCAACGUCCUCAACCUCCAAUGCAUCCCACCACAUGAUGAUGCCUGAAGAGCCUUGGUUCUUUG, the “polymerase ribozyme fitness (log ratio)” value rises from -2.27 to 0.237.

First: GACCAAUCUGCCCUCAGAGCUCGAGGACAUCUUCGGAUGCAGAGGAGGCAGGCUUCGGUGGAGCGAUAGCGCCAACGUCCUUAACCUCCAAUGCAUCCCACCACAUGAUGAUGCCUGAAGAGCCUUGGUUUUUUG
Second: GACCAAUCUGCCCUCAGAGCUCGAGAACAUCUUCGGAUGCAGAGGAGGCAGGCUUCGGUGGCGCGAUAGCGCCAACGUCAUCAACCUCCAAUACAUCCCACCACAUGAUGAUGCCUGAAGAGCAUUGAUUUUUUG
The “polymerase ribozyme fitness (log ratio)” value of the first is higher: -3.78 for the first, -5.36 for the second.

Compared with GACCAAUCUGCCCUCAGAGCUCGAGAACAUCUUCGGAUGCAGAGGAGGCAGGCUUCGGUGGCACGAUAGCGCAAACGUCCUCAACCUCCAAUGCAUCCCACCACAUGAUGAUGCCUGACCAGCCUUGGUUUUUUG, GACCAAUCUGCCCUCAGAGCUCGAGAACAUCUUCGGAUGCAGAGGAGGCAGGCUUCGGUGGCGCGAUAGCGCCAACGUCCUCAACCUCCUAUGCAUCCCACCACAAGAUGUUGCCUGAAGAGCCUUGGUUUUUUG is lower in “polymerase ribozyme fitness (log ratio)” value: -1.42 for the first, -3.8 for the second.

Compared with GACCAAUCUGCCCUCAGAGCUCGAGAACAUUUUCGGAUGCAGAGGAGGCAGGUUUCGGUGGCGCGAUAGCGCCAACGUCCUCAACCUCCAAUGCAUCCCACCACAUGAUGAUGCCUGAAGAGCCUUGGUUUUUUG, GACCAAUCUGCCCUCAGAUCUCGAGAACAUCUUCGGAUGCAGAGGAGGCCGGCUUCGGUGGCGCGAUAGCGCCAACGUCCUCAACCUCCAAUGCAUCUCACCACAUGAUAAUGCCUGAAGGGCCUUGGUUUUUUG is lower in “polymerase ribozyme fitness (log ratio)” value: -4.91 for the first, -6.95 for the second.

Compared with GAGCAAUCAGCCCUCAGAGCUCGAGAACAUCUUCGGAUGCAGAGGAGGCAGGCUUCGGUGGCGCGAUAGCGCCAACGUCCUCAAACUCCAAUGCAUCCCACCACAUGAUGAUGCCUGAAGAGCCUUGGUUUUUUG, GACCAAGCUGCCCUUAGAGUUCGAGAACAUCUUCGGAUGCAGAGGAGGCAGGCUUCGGUGGCGCGAUAGCGCCAACGUCCUCAACCUCCAAUGCAUCCCACCACAUGAUGAUGCCUGAAGAGCCUUGGUUUUUUG is higher in “polymerase ribozyme fitness (log ratio)” value: -2.07 for the first, -1.35 for the second.

Going from GACCAAUCUGCCCUCAGAGCUCGAGAACAUCUUCGGAUGCAGAGGAGGCAGGCUUCGAUCGCGCGAUAGCGCCAACGUCCUCAACCUCCAAUGCAUCCCACCACAUGAUGAUGCCUGAAGAGCCUUGGUUUUUUG to GACCAAUCUGCCCUCAGAGCUCGAGAACAUCUUCGGAUGCAGAGGAGGCAGGCUUCGCUGGCGCGAUAGCGCCAACGUCCUCAACCUCCAAUGCAUCCCACCACAUGAUGAUGCCUGAAUAGCCUUGGUUUUUUG, the “polymerase ribozyme fitness (log ratio)” value rises from -0.284 to 0.305.

Going from GACCAAUCAGCCCUCAGAGCUCGAGAACAUCUUCGGAUGCAGACGAGGCAGGCUUCGGUGGCGCGAUAGCGCCAACGUCAUCAACCUCCAAUGCACCCCACCACAUGAUGAUGCCUGAAGAGCCUUGGUUUUUUG to GACCAAUCUGCCCUCAGAGCUCGAGAACAUCUUCGGAUGCAGAGGAGGCAGGGUUCGGUGGCGCGAUAGCGCCAACGUCCUCAACCUCCAAUGCAUCCCACCACAUGAUGAUGCCUGAAGAGACUUGGUUUUUUG, the “polymerase ribozyme fitness (log ratio)” value rises from -3.87 to 0.261.

Going from GACCAAUCUGCCCUCAGAGCUCGAGAACAUCUUCGGAUGCAGAGGAGGCAUGCUUCGGUGGCGCGAUAGCGCCAACGUCCUCAACCUCCAAUGCAUCCCACCACAUGAUGAUGCCUGAAGAGCCUUGGCUUUUUG to GACCGAUUUGCCCUCAGAGCUCGAGAACAUCUUCGGAUGCAGAGGAGGCAGGCAUCGGUGGCGCGAUAGCGCCAACGUCCUCAACCUCCAAUGCAUCCCACCACAUGAUGUUGCCUGAAGAGCCUUGGUUUUUUG, the “polymerase ribozyme fitness (log ratio)” value rises from -4.13 to -2.21.

Compared with GACCAAUCUACCCUCAGAACUCGAGAACAUCUUCGGAUGCAGAGGAGGCAGGCUUCGGUGGCGCGAUAGAGCCAACGUCCUCAACCUCCAAUGCAACCCACCAUAUGAUGAUGCCUGAAGAGCCUUGGUUUUUUG, GACCAAUCUGCCCUCAGAGCUCGAGAACAUCUUCGGGUGCAGAGGGGGCAGGCUUCGGUGGCGCGAUAGCGCCAACGUCCUCCACCUCCAAUGCAUCCCACCACAUGAUGAUGCCUGAAGAGCCUUGGUUUUUUG is higher in “polymerase ribozyme fitness (log ratio)” value: -6.15 for the first, -2.03 for the second.

First: GACCAAUGUGCCCUCAGAGCUCGAGAACAUCUUCGGAUGCAGAGGAGGCAGGCUUCGGUGGCGUGAUAGCGCCAACGUCCUCAACCUCCAAUGCAUCCCACCACAUGAUGAUGCCUGAAGAGCCUUGGUUUUUUG
Second: GUCCAAUCUGCCCUCAGAGCUCGAGAACAUCUUCGGAUGCAGAGGAGGCAGGCUUCGGUGGCGCGAUAGCGACAACGUCCUCAACCUCCAAUGCAUCCCACCACAUGAUGAUGCCUGAAGAGCCUUGGUUUUUUG
The “polymerase ribozyme fitness (log ratio)” value of the first is higher: 0.927 for the first, -2.16 for the second.

Going from GACCAAUCUGCCCUCAGAGCUUGAGAACAUCUUCGGAUGCAGAGGAGGUAGGCUUCGGUGGCGCGAUAGCGCCAACGUCCUCAACCUCAAAUGCAUCCCACCACAUGAUGAUGCCUGAAGAGUCUUGGUUUUUUG to GACCAAUCUGCCCUCAGAGCUCGAGAACAUCUUCGGAUGCAGAUGAGGCAGGCUUCGGUGGUCCGAUAGCGCCAACGUCCUCAACCUCCAAUGCAUCCCACCACAUGAUGAUGCCUGAAGAGCCUUGGUUUUUUG, the “polymerase ribozyme fitness (log ratio)” value rises from -6.02 to -2.59.

First: GACCAAUCUGUCCUCAGAGCUCGAGAACAUCUUCGGAUGCAGUGGAGGCAGGCUUCGGUUGCGCGAUAGCGCCAACGUCCUCAACCUCCCAUGCAUCCCACCACAUGAUGAUGCCUGAAGAGCCUUGGUUUUUUG
Second: GACCAAUCUGCCCUCAGAGCUCGAGAACAUCUUCGGAUGCAGAGGAGGCAGGCAUCGGUGGCGCGAUAGCGCCAACGUCCUCAACCUCCAAUGAAUCCCACCACAUGAUGAUUCCUGAAGAGCCUUGGUUUUUUG
The “polymerase ribozyme fitness (log ratio)” value of the first is higher: -1.62 for the first, -3.97 for the second.

Going from GACCAAACUGCCCUCAGAGCUCGAGAACAUCUUCGGAUGCAGAGGAGGCAGGCUUCGGUGGCGUGAUAGCGCCAACGUCCUCAACCUCGAUUGCAUUCCACCACAUGAUGAUGCUUGAAGAGCCUUGGUUUUUUG to GACCAAUCUUCCCUCAGAGCUCGAGAACAUCUUCGGAUGCAGAGGAGGCAGGCUUCGGUGGCGCGAUAGAGCCAACGUCCUCAACCUCCAAUGCAUCCCACCACAUGAUGAUGCCUGAAGAGCCUUGGUUUUUUG, the “polymerase ribozyme fitness (log ratio)” value rises from -2.72 to -1.66.

First: GACCAAUCUGCCCUCAGAGCCCGAGAACAUCUUCGGAUGCAGAGGAGGCAGGCUUCGGUGGCGCGAUAUCGCCAACGUCCUCAACCUUCAAUGGAUCCCACCACAUGAUGAUGCCUGAAGAGCUUUGGUUUUUUG
Second: GACCAAUCUGCCCUCAGAGCUCGAGAACAUCUUCGGAUGCAGAGGAGGCAGGCUUCGGUGGCGCGAUAGCGCCAACGUCCUCAACCUCGAAUGCAUCCCACCACAAGAUGAUGCCUGAAGAGCCUUGGUUUUUUG
The “polymerase ribozyme fitness (log ratio)” value of the first is higher: -1.5 for the first, -2.51 for the second.

Going from GACCAAUCUGCCCUCAGAGCUCGAGAACAUCUUCGGAUGCAGAGGAGGCUGGCUUCUGUGGCGCGAUAGCGCCAACGUCCUCAACCUCCAAUGCAUCCCACCACAUGAUGAUGCCUGAAGAGCCUUGGUUUUUUA to GACCAAUCUGCCCUCAGAGCUCGAGAACAUCUUCGGAUGCAGAGGAGGCAGGCUUCGGUGGCGCGAUAGCGACAACGUCCUAAACCUCCAAUGCAGCCCUCCACAUGAUGAUGCAUGAAGAGCCUUGGUUUUUUG, the “polymerase ribozyme fitness (log ratio)” value falls from -2.6 to -3.23.

Compared with GACCAAUCUGCCCUCAGAGCUCGAGAACAUCUUCGGAUGCAGAGGAGGCAGGCUUCGGUGGCGCGAUAGCGCCAACGUCCUCAACCUCCAAUGAAUCCCACCACAUGAUGAGGCCUGAAGAGCGUUGGUUUUUUG, GACCAAUCGGCCCUCAGAGCUCGAGAACAUCUUCGGAUGCAAAGGAGGCAGGGUUCGGUGGCGCGAUAGCGCCAACGUCCUCAACCUCCAAUGCAUCCCACCACAUGAUGAUGCCUGAAGAGCCUUGGUUUUUUG is lower in “polymerase ribozyme fitness (log ratio)” value: 0.054 for the first, -2.45 for the second.
